# Experimental data published in paper PMC2116304 (The Journal of Cell Biology, 1990).
# “And” between values parts separate entries of the source, which are not always exact repeats. Equal entries are not always repeated.
# B1: excess (class II-unassociated) invariant chain from Swei B-LCL (natural protein, human, UniProt P04233-2 1-232, looked up)
# chain: MHRRRSRSCREDQKPVMDDQRDLISNNEQLPMLGRRPGAPESKCSRGALYTGFSILVTLLLAGQATTAYFLYQQQGRLDKLTVTSQNLQLENLRMKLPKPPKPVSKMRMATPLLMQALPMGALPQGPMQNATKYGNMTEDHVMHLLQNADPLKVYPPLKGSFPENLRHLKNTMETIDWKVFESWMHHWLLFEMSRHSLEQKPTDAPPKESLELEDPSSGLGVTKQDLGPVPM
# modifications: [35S]methionine-labelled; N-linked glycans, endo H-sensitive
# B2: invariant chain (from the class II-negative hybrid cell line 174xCEM.T2) (natural protein, human, UniProt P04233-2 1-232, looked up)
# chain: B1 chain
# modifications: N-linked glycans, endo H-sensitive; [35S]methionine-labelled in the affinity-purified samples
# Columns and labels:
# [1] = biological target: K3 proteolytic fragment of the invariant chain (18,000 D, lumenal) (human); test: cross-linking
# [2] = biological target: the molecule itself; test: SEC
# [3] = biological target: the molecule itself; test: cross-linking
# [4] = biological target: the molecule itself; test: non-reducing SDS-PAGE without cross-linker
molecule,measurement,setting,value
"K3 proteolytic fragment of the invariant chain (18,000 D, lumenal) (domain or fragment)",stoichiometry N,[1],3
B1,stoichiometry N,[2],3
B2,stoichiometry N,[3],3 and 4 and 6
same,stoichiometry N,[4],2
